We go through two molecules from publication PMC6319916 (Biochemistry, 2018).

Series [1] addresses T1, 3-hydroxy-3-methylglutaryl coenzyme A reductase (DaHMGR) (Delftia acidovorans, UniProt A9BQX8).
T1 sequence (A9BQX8 1-429): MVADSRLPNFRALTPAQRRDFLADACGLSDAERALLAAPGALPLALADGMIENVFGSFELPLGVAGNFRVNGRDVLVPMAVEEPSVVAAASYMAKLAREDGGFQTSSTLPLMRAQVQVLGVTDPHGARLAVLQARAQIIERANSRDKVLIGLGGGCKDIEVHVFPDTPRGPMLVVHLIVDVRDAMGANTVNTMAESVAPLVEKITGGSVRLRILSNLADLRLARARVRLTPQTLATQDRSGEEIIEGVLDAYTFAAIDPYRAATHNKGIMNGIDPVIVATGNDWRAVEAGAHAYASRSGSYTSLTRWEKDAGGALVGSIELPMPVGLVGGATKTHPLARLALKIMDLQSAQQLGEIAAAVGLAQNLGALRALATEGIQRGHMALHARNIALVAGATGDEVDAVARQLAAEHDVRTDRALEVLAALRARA
Description: X-ray crystal structure. The series is classed as binding.

Substrate in series [2]: CC(C)(COP(=O)(O)OP(=O)(O)OC[C@H]1O[C@@H](n2cnc3c(N)ncnc32)[C@H](O)[C@@H]1OP(=O)(O)O)[C@@H](O)C(=O)NCCC(=O)NCCSC(=O)C[C@@](C)(O)CC(=O)O
Description: purified protein. The settings on record: NADH.

For orientation: Km means the concentration of substrate that gives half-maximal velocity. A word on the kcat: it is the maximal rate divided by the concentration of active sites. As usually defined, the kcat/Km is the turnover number divided by the Michaelis constant.

With `C[C@@](O)(CCO)CC(=O)O` [mevalonate], the “X-ray crystal structure (1.49 Å)” value in series [1] is “in the mevalonate-bound DaHMGR structure, positive difference maps showed density in the active site, representing mevalonate binding”.

B1: 3-hydroxy-3-methylglutaryl coenzyme A reductase (DaHMGR) (Delftia acidovorans SPH-1) (protein)
chain: T1 sequence (A9BQX8 1-429)
Take B1: in series [2], the Km was found to be 7.34 ± 0.71 µM, the kcat came out at 22.3 s⁻¹ and the kcat/Km worked out at 3.04e+06 M⁻¹ s⁻¹.
